Laboratory results as given in US20110076272A1, “THERAPEUTIC METHODS AND COMPOSITIONS” (priority 2009, published 2011).
Where two headings read alike, the source gives them in different places.

Tested on: human umbilical vein endothelial cells (HUVEC)
Experiment: In vitro HUVEC tube formation assay
Type: cell-based
Settings: for IC50: CD31 staining, day 11
Method: Human umbilical vein endothelial cells (HUVECs) were plated on a feeder layer of fibroblasts and cultured in 24-well plates in Lonza EBM-2 medium (a basal medium developed for normal human endothelial cells in a low-serum environment) supplemented with hEGF, Hydrocortisone, GA-1000 (Gentamicin, Amphotericin-B), FBS (Fetal Bovine Serum) 10 ml (2% final), VEGF, hFGF-B, R3-IGF-1, Ascorbic Acid and heparin. […] At this point (day 1), 0.5 ml of fresh endothelial cell growth medium containing no additions (control), anti-LOXL2 antibody AB0023, or suramin was added to the wells. The plate was then cultured at 37° C. and 5% CO2. On days 4, 7 and 9 the medium was removed from all wells and carefully replaced with 0.5 ml of fresh medium containing the additions listed above. On day 11, the plates were fixed and tubules were assayed for CD31 expression as follows. Wells were washed with 1 ml PBS and fixed with 1 ml ice cold 70% ethanol for 30 minutes at room temperature. Cells were then incubated, for 60 minutes at 37° C., with 0.5 ml mouse anti-human CD31 antibody diluted 1:400 in PBS containing 1% BSA. Wells were then washed three times with 1 ml PBS, followed by incubation for 60 minutes at 37° C. with 0.5 ml alkaline phosphatase-conjugated goat anti-mouse IgG secondary antibody diluted 1:500 in PBS containing 1% BSA. Wells were washed a further three times with 1 ml PBS prior to incubation for 10 minutes at 37° C. with 0.5 ml freshly prepared and filtered BCIP/NBT substrate. Wells were then carefully washed three times with 1 ml distilled water and left to air dry overnight.
Digital images of each well were taken using a Nikon Coolpix camera on a Leica inverted microscope at 10× magnification. Four random fields per well were imaged, producing 96 images in total. Images were then converted to BMP files and imported into an image analysis package to measure number of vessel branches, number of vessels and total vessel length. […]

B1: AB0023: mouse anti-human LOXL2 monoclonal antibody; heavy chain variable region SEQ ID NO:1, light chain variable region SEQ ID NO:2 (antibody, listed as Mus musculus, V domains shown)
VH: MEWSRVFIFLLSVTAGVHSQVQLQQSGAELVRPGTSVKVSCKASGYAFTYYLIEWVKQRPGQGLEWIGVINPGSGGTNYNEKFKGKATLTADKSSSTAYMQLSSLTSDDSAVYFCARNWMNFDYWGQGTTLTVSS
VL: MRCLAEFLGLLVLWIPGAIGDIVMTQAAPSVSVTPGESVSISCRSSKSLLHSNGNTYLYWFLQRPGQSPQFLIYRMSNLASGVPDRFSGSGSGTAFTLRISRVEAEDVGVYYCMQHLEYPYTFGGGTKLEIK
modifications: Heavy chain; Light chain
In the case of B1, the “inhibition of vessel branching, vessel length and total number of vessels” value (50 ug/ml) is reported as “complete inhibition”, the IC50 (read-out: IC50 for inhibition of number of vessels (FIG. 4 Panel H)) is reported as 19.9 nM and the IC50 (read-out: IC50 for inhibition of vessel branching (mean number of branching points, FIG. 4 Panel G)) is reported as 22.2 nM.
